One experiment addresses HLA-B*45:01. The experiment in a line: IEDB peptide-MHC binding, purified MHC/competitive/radioactivity; filed as Kd, often an IC50 or EC50 that approximates it; ≥ and ≤ were set here for values at or beyond the usual limits of such assays.
A further experiment addresses HLA-B*40:02. Described as above.
The next experiment concerns the target HLA-B*44:02. The experiment is described as above.
A further experiment addresses HLA-B*40:01. Described as above.
In another experiment the target is HLA-B*44:03. The description is as above.
The target of a further experiment is HLA-B*18:01. The experiment is described as above.
Another experiment addresses HLA-B*07:02. The experiment is described as above.
In the next experiment the target is HLA-B*51:01. The experiment is described as above.
In the next experiment the target is HLA-B*53:01. The experiment is described as above.
The next experiment deals with HLA-B*35:01. The experiment is described as above.
For the next experiment, the target named is HLA-B*54:01. The description is as above.
The next experiment concerns the target HLA-B*57:01. Described as above.
The next experiment concerns the target HLA-A*26:01. The experiment is described as above. The conditions noted are these: source organism: Dengue virus 2 Jamaica/1409/1983.
The next experiment has as its target HLA-A*01:01. Described as above. The settings on record: source organism: Dengue virus 2 Jamaica/1409/1983.
A further experiment has as its target HLA-A*24:02. Description: IEDB peptide-MHC binding, purified MHC/competitive/fluorescence; ≥ and ≤ were set here for values at or beyond the usual limits of such assays. The conditions noted are these: source organism: Vaccinia virus.
In the next experiment the target is HLA-A*11:01. Described as above. The settings on record: source organism: Vaccinia virus.
Where [1] appears, read: source organism: Lymphocytic choriomeningitis virus (strain Armstrong).
The mark [2] stands for this setting: source organism: SARS coronavirus Tor2.
The mark [3] stands for this setting: source organism: Vaccinia virus WR.
Setting [4] is: source organism: Dengue virus 4 Philippines/H241/1956.
[5] abbreviates: source organism: Mammarenavirus juninense.
Setting [6] is: source organism: Mammarenavirus machupoense.

For the sequence ADSDDILTL, the Kd with HLA-B*45:01 (setting [1]) is ≥ 77.7 µM; with HLA-B*40:02 (setting [1]) it was ≥ 22.2 µM; in the experiment with HLA-B*44:02 (setting [1]), ≥ 20.8 µM; with HLA-B*40:01 (setting [1]) it was ≥ 26.9 µM; with HLA-B*44:03 (setting [1]), 6.06 µM; with HLA-B*18:01 (setting [1]), ≥ 77.5 µM.
Take AEIVDTVSAL: the Kd with HLA-B*45:01 (setting [2]) is 0.287 µM; with HLA-B*40:02 (setting [2]), 2.57 µM; in the experiment with HLA-B*44:02 (setting [2]), 0.0864 µM; with HLA-B*40:01 (setting [2]) it was 0.00114 µM; with HLA-B*44:03 (setting [2]), 0.105 µM; in the experiment with HLA-B*18:01 (setting [2]), ≥ 23.1 µM.
As for APIKEFKAKI, the Kd was 0.0202 µM with HLA-B*07:02 (setting [3]); ≥ 22.4 µM in the experiment with HLA-B*51:01 (setting [3]); 12 µM with HLA-B*53:01 (setting [3]); ≥ 41.4 µM with HLA-B*35:01 (setting [3]); 11.2 µM with HLA-B*54:01 (setting [3]).
As for EAVNDSRFW, the Kd with HLA-B*53:01 (setting [4]) was 0.0132 µM; in the experiment with HLA-B*57:01 (setting [4]), 1.26 µM.
As for EEAIRHVRAW, the Kd with HLA-B*45:01 (setting [2]) was 4.77 µM; with HLA-B*40:02 (setting [2]) it was ≥ 70.8 µM; with HLA-B*44:02 (setting [2]), 0.0073 µM; with HLA-B*40:01 (setting [2]) it was ≥ 69.6 µM; with HLA-B*44:03 (setting [2]) it was 0.0142 µM; with HLA-B*18:01 (setting [2]) it was ≥ 43.1 µM.
As for EEHFVETVSL, the Kd in the experiment with HLA-B*45:01 (setting [2]) turned out to be 0.116 µM; in the experiment with HLA-B*40:02 (setting [2]) it was 0.0843 µM; with HLA-B*44:02 (setting [2]), 0.44 µM; with HLA-B*40:01 (setting [2]), 0.0092 µM; with HLA-B*44:03 (setting [2]) it was 0.143 µM; in the experiment with HLA-B*18:01 (setting [2]), 1.04 µM.
For the sequence EETFKLSYGI, the Kd is 2.54 µM in the experiment with HLA-B*45:01 (setting [2]); 0.194 µM with HLA-B*40:02 (setting [2]); 0.076 µM in the experiment with HLA-B*44:02 (setting [2]); 3.58 µM in the experiment with HLA-B*40:01 (setting [2]); 0.13 µM with HLA-B*44:03 (setting [2]); 19.7 µM in the experiment with HLA-B*18:01 (setting [2]).
In the case of ETSWHYDQDH, the Kd with HLA-A*26:01 was ≥ 40.9 µM; with HLA-A*01:01, ≥ 70.4 µM; in the experiment with HLA-B*57:01 (source organism: Dengue virus 2 Jamaica/1409/1983), 2.31 µM.
Regarding GGKVFAPKQ, the IC50 is ≥ 2250 µM with HLA-A*24:02 and ≥ 244 µM in the experiment with HLA-A*11:01.
Consider HECFVKRVDW, for which the Kd is ≥ 33.8 µM in the experiment with HLA-B*45:01 (setting [2]); 5.78 µM with HLA-B*40:02 (setting [2]); 0.302 µM with HLA-B*44:02 (setting [2]); ≥ 69.6 µM in the experiment with HLA-B*40:01 (setting [2]); 0.187 µM with HLA-B*44:03 (setting [2]); 6.62 µM in the experiment with HLA-B*18:01 (setting [2]).
In the case of HEDLMAAYV, the Kd came out at 1.69 µM in the experiment with HLA-B*45:01 (setting [2]); 1.33 µM with HLA-B*40:02 (setting [2]); 7.08 µM in the experiment with HLA-B*44:02 (setting [2]); 1.2 µM with HLA-B*40:01 (setting [2]); 5.06 µM with HLA-B*44:03 (setting [2]); 3.91 µM with HLA-B*18:01 (setting [2]).
For the sequence HPDMDSMMI, the Kd with HLA-B*07:02 (setting [5]) was 0.806 µM; with HLA-B*51:01 (setting [5]) it was 3.31 µM; with HLA-B*53:01 (setting [5]), 0.167 µM; in the experiment with HLA-B*35:01 (setting [5]), 1.49 µM; in the experiment with HLA-B*54:01 (setting [5]), ≥ 68.4 µM.
For the sequence HPLADNKFAL, the Kd in the experiment with HLA-B*07:02 (setting [2]) came to 0.0971 µM; with HLA-B*51:01 (setting [2]), 0.991 µM; with HLA-B*53:01 (setting [2]), 0.783 µM; with HLA-B*35:01 (setting [2]), 0.185 µM; in the experiment with HLA-B*54:01 (setting [2]), 7.11 µM.
Consider IDYVPLKSAT, for which the Kd with HLA-B*45:01 (setting [2]) is 2.05 µM; in the experiment with HLA-B*40:02 (setting [2]) it was ≥ 50.6 µM; with HLA-B*44:02 (setting [2]) it was ≥ 40 µM; in the experiment with HLA-B*40:01 (setting [2]) it was ≥ 69.6 µM; in the experiment with HLA-B*44:03 (setting [2]), ≥ 70.1 µM; in the experiment with HLA-B*18:01 (setting [2]), ≥ 70.5 µM.
Consider KDMPGGYCL, for which the Kd was 18.2 µM in the experiment with HLA-B*45:01 (setting [6]); 0.235 µM with HLA-B*40:02 (setting [6]); ≥ 42.5 µM with HLA-B*44:02 (setting [6]); 17.7 µM with HLA-B*40:01 (setting [6]); ≥ 78.1 µM with HLA-B*44:03 (setting [6]); ≥ 38.9 µM with HLA-B*18:01 (setting [6]).
In the case of KELSPRWYF, the Kd with HLA-B*45:01 (setting [2]) was found to be 6.01 µM; in the experiment with HLA-B*40:02 (setting [2]) it was 0.0073 µM; in the experiment with HLA-B*44:02 (setting [2]), 0.0634 µM; with HLA-B*40:01 (setting [2]) it was 0.889 µM; in the experiment with HLA-B*44:03 (setting [2]) it was 0.0528 µM; with HLA-B*18:01 (setting [2]) it was 1.88 µM.

As a reminder, the Kd is the free concentration of one partner at which half of the binding sites on the other are occupied at equilibrium, for simple one-to-one binding. A word on the IC50: it is the concentration that gives 50% inhibition. A lower IC50 goes with inhibition by little substance.

The values above are taken from the Immune Epitope Database (IEDB).
